Assay results as given in patent US20250188133A1, “CHIMERIC BACTERIOCINS AND METHOD FOR THE CONTROL OF PSEUDOMONAS” (priority 2022, published 2025).

What was measured:
Type in all cases: cell-based
[1] = tested on: P. aeruginosa Boston 41501 (ATCC 27853); experiment: agar disc-diffusion assay; conditions: strain Boston; 0.3, 3 and 30 μg of protein spotted on discs on CAA agar lawn, overnight
Description: (§1) Overnight P. aeruginosa cultures grown in CAA medium were equalized till OD595=1.0 in CAA and diluted 100×. Sterile cotton swab was briefly submerged in diluted microbial suspension, removing the excess of liquid by pressing it against the container wall. The swab was used for evenly streaking bacteria on plates containing growth medium with CAA solid agar (1.5%). 6 mm diameter sterile Whatman discs were placed on soft-agar and 0.3-30 μg of chimeric pyocins were spotted to paper disks. The plates were incubated overnight at 37° C. and bacteriocin inhibition zones were observed.
(§2) Next, all 25 P. aeruginosa strains were subjected to agar disc-diffusion assay by spotting different amounts of purified pyocin S5 (0.3 μg, 3 μg and 30 μg) on bacteria lawns. Six P. aeruginosa strains were resistant to pyocin S5. Four of these six strains were pyocin S5 and immunity protein-encoding strains—PA14, PAO1, […] and NCTC 13921. Two cystic fibrosis isolates, 12-35708 and 12-29165 were also completely resistant to pyocin S5, despite the absence of S5, or S5 immunity protein coding genes. […] Turbid inhibition zones were detected when 3 μg and 30 μg of S5 were spotted on the lawn of these strains (Table 1, FIG. 3).

P. aeruginosa HP40 = experiment: agar disc-diffusion assay; conditions: strain HP40; 0.3, 3 and 30 μg of protein spotted on discs on CAA agar lawn, overnight
Description: as §1, §2

P. aeruginosa HP1 = experiment: agar disc-diffusion assay; conditions: strain HP1; 0.3, 3 and 30 μg of protein spotted on discs on CAA agar lawn, overnight
Description: as §1, §2

P. aeruginosa ATCC 19660 = experiment: agar disc-diffusion assay; conditions: strain ATCC 19660; 0.3, 3 and 30 μg of protein spotted on discs on CAA agar lawn, overnight
Description: as §1, §2

P. aeruginosa UR78 = experiment: agar disc-diffusion assay; conditions: strain UR78; 0.3, 3 and 30 μg of protein spotted on discs on CAA agar lawn, overnight
Description: as §1, §2

P. aeruginosa Pr335 = experiment: agar disc-diffusion assay; conditions: strain Pr335; 0.3, 3 and 30 μg of protein spotted on discs on CAA agar lawn, overnight
Description: as §1, §2

P. aeruginosa NCTC 13921 = experiment: agar disc-diffusion assay; conditions: strain NCTC 13921; 0.3, 3 and 30 μg of protein spotted on discs on CAA agar lawn, overnight
Description: as §1, §2

P. aeruginosa EY76 = experiment: agar disc-diffusion assay; conditions: strain EY76; 0.3, 3 and 30 μg of protein spotted on discs on CAA agar lawn, overnight
Description: as §1, §2

P. aeruginosa HP75 = experiment: agar disc-diffusion assay; conditions: strain HP75; 0.3, 3 and 30 μg of protein spotted on discs on CAA agar lawn, overnight
Description: as §1, §2

P. aeruginosa A19 = experiment: agar disc-diffusion assay; conditions: strain A19; 0.3, 3 and 30 μg of protein spotted on discs on CAA agar lawn, overnight
Description: as §1, §2

P. aeruginosa PAO1 = experiment: agar disc-diffusion assay; conditions: strain PAO1; 0.3, 3 and 30 μg of protein spotted on discs on CAA agar lawn, overnight
Description: as §1, §2

P. aeruginosa ATCC 29260 = experiment: agar disc-diffusion assay; conditions: strain ATCC 29260; 0.3, 3 and 30 μg of protein spotted on discs on CAA agar lawn, overnight
Description: as §1, §2

P. aeruginosa 13-18499 = experiment: agar disc-diffusion assay; conditions: strain 13-18499; 0.3, 3 and 30 μg of protein spotted on discs on CAA agar lawn, overnight
Description: as §1, §2

P. aeruginosa HP7 = experiment: agar disc-diffusion assay; conditions: strain HP7; 0.3, 3 and 30 μg of protein spotted on discs on CAA agar lawn, overnight
Description: as §1, §2

P. aeruginosa BR79 = experiment: agar disc-diffusion assay; conditions: strain BR79; 0.3, 3 and 30 μg of protein spotted on discs on CAA agar lawn, overnight
Description: as §1, §2

P. aeruginosa Bu002 = experiment: agar disc-diffusion assay; conditions: strain Bu002; 0.3, 3 and 30 μg of protein spotted on discs on CAA agar lawn, overnight
Description: as §1, §2

P. aeruginosa BL77 = experiment: agar disc-diffusion assay; conditions: strain BL77; 0.3, 3 and 30 μg of protein spotted on discs on CAA agar lawn, overnight
Description: as §1, §2

P. aeruginosa BI80 = experiment: agar disc-diffusion assay; conditions: strain BI80; 0.3, 3 and 30 μg of protein spotted on discs on CAA agar lawn, overnight
Description: as §1, §2

P. aeruginosa HP41 = experiment: agar disc-diffusion assay; conditions: strain HP41; 0.3, 3 and 30 μg of protein spotted on discs on CAA agar lawn, overnight
Description: as §1, §2

P. aeruginosa NCTC 13437 = experiment: agar disc-diffusion assay; conditions: strain NCTC 13437; 0.3, 3 and 30 μg of protein spotted on discs on CAA agar lawn, overnight
Description: as §1, §2

P. aeruginosa HP52 = experiment: agar disc-diffusion assay; conditions: strain HP52; 0.3, 3 and 30 μg of protein spotted on discs on CAA agar lawn, overnight
Description: as §1, §2

P. aeruginosa HP6 = experiment: agar disc-diffusion assay; conditions: strain HP6; 0.3, 3 and 30 μg of protein spotted on discs on CAA agar lawn, overnight
Description: as §1, §2

P. aeruginosa PA14 = experiment: agar disc-diffusion assay; conditions: strain PA14; 0.3, 3 and 30 μg of protein spotted on discs on CAA agar lawn, overnight
Description: as §1, §2

P. aeruginosa strains = experiment: agar disc-diffusion assay, panel of 25 strains
Description: as §1, §2

B1: S5-Pflu095: chimeric bacteriocin SEQ ID NO: 9: pyocin S5 first segment fused to P. fluorescens Pflu095 killing domain (protein)
chain: MSNDNEVPGSMVIVAQGPDDQYAYEVPPIDSAAVAGNMFGDLIQREIYLQKNIYYPVRSIFEQGTKEKKEINKKVSDQVDGLLKQITQGKREATRQERVDVMSAVLHKMESDLEGYKKTFTKGPFIDYEKQSSLSIYEAWVKIWEKNSWEERKKYPFQQLVRDELERAVAYYKQDSLSEAVKVLRQELNKQKALKEKEDLSQLERDYRTRKANLEMKVQSELDQAGSALPPLVSPTPEQWLERATRLVTQAIADKKQLQTTNNTLIKNSPTPLEKQKAIYNGELLVDEIASLQARLVKLNAETTRRRTEKDKVRTEVVDIEAAIKFTSDFYAEAGVRFGDSASKLASDLADSAQGKKIRSADEAFKAFDKYKNELDKKFSVKDRAAAAKYIDSIDYEAIGKAATKFSKGLGYVGPVIDAKDSIIEFINSMESGDWKPFFLKLESIALGLAATAFVGIAFGFIATTPMGILAFAFIVAATGAAIDDNFAEKLNKFVSSL
modifications: S5-Pflu095
Activity in agar disc-diffusion assay [1]: *** (activity detected with 0.3 μg of protein)
Activity in agar disc-diffusion assay (P. aeruginosa HP40): *** (activity detected with 0.3 μg of protein)
Activity in agar disc-diffusion assay (P. aeruginosa HP1): *** (activity detected with 0.3 μg of protein)
Activity in agar disc-diffusion assay (P. aeruginosa ATCC 19660): * (activity detected only with 30 μg of protein)
Activity in agar disc-diffusion assay (P. aeruginosa UR78): *** (activity detected with 0.3 μg of protein)
Activity in agar disc-diffusion assay (P. aeruginosa Pr335): *** (activity detected with 0.3 μg of protein)
Activity in agar disc-diffusion assay (P. aeruginosa NCTC 13921): *** (activity detected with 0.3 μg of protein)
Activity in agar disc-diffusion assay (P. aeruginosa EY76): *** (activity detected with 0.3 μg of protein)
Activity in agar disc-diffusion assay (P. aeruginosa HP75): * (activity detected only with 30 μg of protein)
Activity in agar disc-diffusion assay (P. aeruginosa A19): *** (activity detected with 0.3 μg of protein)
Activity in agar disc-diffusion assay (P. aeruginosa PAO1): *** (activity detected with 0.3 μg of protein)
Activity in agar disc-diffusion assay (P. aeruginosa ATCC 29260): *** (activity detected with 0.3 μg of protein)
Activity in agar disc-diffusion assay (P. aeruginosa 13-18499): ** (activity detected with 3 μg of protein)
Activity in agar disc-diffusion assay (P. aeruginosa HP7): *** (activity detected with 0.3 μg of protein)
Activity in agar disc-diffusion assay (P. aeruginosa BR79): ** (activity detected with 3 μg of protein)
Activity in agar disc-diffusion assay (P. aeruginosa Bu002): *** (activity detected with 0.3 μg of protein)
Activity in agar disc-diffusion assay (P. aeruginosa BL77): ** (activity detected with 3 μg of protein)
Activity in agar disc-diffusion assay (P. aeruginosa BI80): *** (activity detected with 0.3 μg of protein)
Activity in agar disc-diffusion assay (P. aeruginosa HP41): *** (activity detected with 0.3 μg of protein)
Activity in agar disc-diffusion assay (P. aeruginosa NCTC 13437): * (activity detected only with 30 μg of protein)
Activity in agar disc-diffusion assay (P. aeruginosa HP52): ** (activity detected with 3 μg of protein)
Activity in agar disc-diffusion assay (P. aeruginosa HP6): *** (activity detected with 0.3 μg of protein)
Activity in agar disc-diffusion assay (P. aeruginosa PA14): ** (activity detected with 3 μg of protein)
inhibition on lawns of S5 producer strains HP6 and HP7 (P. aeruginosa strains; clinical isolates HP6 and HP7, S5 gave turbid zones with 3 μg and 30 μg): significantly larger and clearer than those formed by S5
activity spectrum / profile in agar disc diffusion assay (P. aeruginosa strains; panel of 25 P. aeruginosa strains, in words): broadened activity spectrum in comparison to pyocin S5
inhibition zones on lawns of S5-producing strains (P. aeruginosa strains; six pyocin S5 and immunity gene-positive strains (PA14, PAO1, HP6, HP7, ATCC 19660, NCTC 13921)): formed inhibition zones on the lawns of all six S5-producing strains
